Measured values as given in publication PMC2115152 (The Journal of Cell Biology, 1988).

Target: F-actin (rabbit, UniProt P68135 1-377)
Assay: co-sedimentation

- stoichiometry N: ~6 actin monomers per 83-kD protein
B1: 83-kD nonmuscle caldesmon (natural protein)
chain: MLSRSGSQGRRCLATLSQIAYQRNDDDEEEAARERRRRARQERLRQKQEEESLGQVTDQVEAHVQNSAPDEESKPATANAQVEGDEEAALLERLARREERRQKRLQEALERQKEFDPTITDGSLSVPSRRMQNNSAENETAEGEEKGESRSGRYEMEETEVVITSYQKNSYQDAEDKKKEEKEEEEEEEKLKGGNLGENQIKDEKIKKDKEPKEEVKNFLDRKKGFTEVKAQNGEFMTHKLKQTENAFSPSRSGGRASGDKEAEGAPQVEAGKRLEELRRRRGETESEEFEKLKQKQQEAALELEELKKKREERRKVLEEEEQRRKQEEADRKAREEEEKRRLKEEIERRRAEAAEKRQKMPEDGLSEDKKPFKCFTPKGSSLKIEERAEFLNKSVQKSGVKSTHQAAVVSKIDSRLEQYTNAIEGTKASKPMKPAASDLPVPAEGVRNIKSMWEKGSVFSSPSASGTPNKETAGLKVGVSSRINEWLTKSPDGNKSPAPKPSDLRPGDVSGKRNLWEKQSVDKVTSPTKV
